According to patent publication US8715959B2, “Substitution mutant receptors and their use in a nuclear receptor-based inducible gene expression system” (priority 2001, dated 2014):
Substitutions are numbered along the chain they refer to. In names and notes the source's numbering stands.

B1: T58A: CfEcR-DEF LBD substitution mutant, Threonine (T) to Alanine (A) (protein, listed as Choristoneura fumiferana)
chain: LTANQQFLIARLIWYQDGYEQPSDEDLKRITQTWQQADDENEESDTPFRQITEMTILAVQLIVEFAKGLPGFAKISQPDQITLLKACSSEVMMLRVARRYDAASDSVLFANNQAYTRDNYRKAGMAYVIEDLLHFCRCMYSMALDNIHYALLTAVVIFSDRPGLEQPQLVEEIQRYYLNTLRIYILNQLSGSARSSVIYGKILSILSELRTLGMQNSNMCISLKLKNRKLPPFLEEIWDV
B2: V107I/YL27E/R175E: CfEcR-DEF LBD triple mutant, V107I, Y127E and R175E (protein, listed as Choristoneura fumiferana)
chain: B1 chain with A58T, V107I, Y127E, R175E
B3: T52I: CfEcR-DEF LBD substitution mutant, Threonine (T) to Isoleucine (I) (protein, listed as Choristoneura fumiferana)
chain: B1 chain with T52I, A58T
B4: T52A/V107I/R175E: CfEcR-DEF LBD triple mutant, T52A, V107I and R175E (protein, listed as Choristoneura fumiferana)
chain: B1 chain with T52A, A58T, V107I, R175E
B5: V107I: CfEcR-DEF LBD substitution mutant, Valine (V) to Isoleucine (protein, listed as Choristoneura fumiferana)
chain: B1 chain with A58T, V107I
B6: E20A: CfEcR-DEF LBD substitution mutant, Glutamic Acid (E) to Alanine (A) (protein, listed as Choristoneura fumiferana)
chain: B1 chain with E20A, A58T
B7: V96A/V107I/R175E: CfEcR-DEF LBD triple mutant, V96A, V107I and R175E (protein, listed as Choristoneura fumiferana)
chain: B1 chain with A58T, V96A, V107I, R175E
B8: V107I/R175E: CfEcR-DEF LBD double mutant, V107I and R175E (protein, listed as Choristoneura fumiferana)
chain: B1 chain with A58T, V107I, R175E
B9: V59A: CfEcR-DEF LBD substitution mutant, Valine (V) to Alanine (A) (protein, listed as Choristoneura fumiferana)
chain: B1 chain with A58T, V59A
B10: R175E: CfEcR-DEF LBD substitution mutant, Arginine (R) to Glutamine (E) (protein, listed as Choristoneura fumiferana)
chain: B1 chain with A58T, R175E
B11: T55A: CfEcR-DEF LBD substitution mutant, Threonine (T) to Alanine (A) (protein, listed as Choristoneura fumiferana)
chain: B1 chain with T55A, A58T
B12: T52V/V107I/R175E: CfEcR-DEF LBD triple mutant, T52V, V107I and R175E (protein, listed as Choristoneura fumiferana)
chain: B1 chain with T52V, A58T, V107I, R175E
B13: T52A: CfEcR-DEF LBD substitution mutant, Threonine (T) to Alanine (A) (protein, listed as Choristoneura fumiferana)
chain: B1 chain with T52A, A58T
B14: V96T: CfEcR-DEF LBD substitution mutant, Valine (V) to Threonine (T) (protein, listed as Choristoneura fumiferana)
chain: B1 chain with A58T, V96T
B15: V96A: CfEcR-DEF LBD substitution mutant, Valine (V) to Alanine (A) (protein, listed as Choristoneura fumiferana)
chain: B1 chain with A58T, V96A
B16: M93A: CfEcR-DEF LBD substitution mutant, Methionine (M) to Alanine (A) (protein, listed as Choristoneura fumiferana)
chain: B1 chain with A58T, M93A
B17: I62A: CfEcR-DEF LBD substitution mutant, Isoleucine (I) to Alanine (A) (protein, listed as Choristoneura fumiferana)
chain: B1 chain with A58T, I62A
B18: V96T/V107I/R175E: CfEcR-DEF LBD triple mutant, V96T, V107I and R175E (protein, listed as Choristoneura fumiferana)
chain: B1 chain with A58T, V96T, V107I, R175E
B19: T52L: CfEcR-DEF LBD substitution mutant, Threonine (T) to Leucine (L) (protein, listed as Choristoneura fumiferana)
chain: B1 chain with T52L, A58T
B20: M92A: CfEcR-DEF LBD substitution mutant, Methionine (M) to Alanine (A) (protein, listed as Choristoneura fumiferana)
chain: B1 chain with A58T, M92A
B21: V107I/Y127E: CfEcR-DEF LBD double mutant, Valine (V) to Isoleucine (I) and Tyrosine (Y) to Glutamine (E) (protein, listed as Choristoneura fumiferana)
chain: B1 chain with A58T, V107I, Y127E
B22: Y127E/R175E: CfEcR-DEF LBD double mutant, Y127E and R175E (protein, listed as Choristoneura fumiferana)
chain: B1 chain with A58T, Y127E, R175E
B23: T52V: CfEcR-DEF LBD substitution mutant, Threonine (T) to Valine (V) (protein, listed as Choristoneura fumiferana)
chain: B1 chain with T52V, A58T
B24: V96D: CfEcR-DEF LBD substitution mutant, Valine (V) to Aspartic Acid (D) (protein, listed as Choristoneura fumiferana)
chain: B1 chain with A58T, V96D
B25: V96M: CfEcR-DEF LBD substitution mutant, Valine (V) to Methionine (M) (protein, listed as Choristoneura fumiferana)
chain: B1 chain with A58T, V96M

Test system: CfEcR-DEF
Experiment: GAL4/mutant CfEcR-DEF + VP16/LmUSP-EF GAL4-driven luciferase reporter transactivation in NIH3T3 cells
Assay type: cell-based, Choristoneura fumiferana
Details: for Fold increase over WT, 2.5 μM GS™-E: 2.5 μM GS™-E non-steroidal ligand; for Fold increase over WT, 2.5 μM GS™-E / Fold increase over WT, 2.5 μM PonA / Fold increase over WT, 10 nM GS™-E / Fold increase over WT, 10 nM PonA: NIH3T3 cells, relative to Gal4/wild-type CfEcR-DEF switch activity; for Fold increase over WT, 2.5 μM PonA: 2.5 μM PonA steroidal ligand; for Fold increase over WT, 10 nM GS™-E: 10 nM GS™-E non-steroidal ligand; for Fold increase over WT, 10 nM PonA: 10 nM PonA steroidal ligand
Procedure: DNAs corresponding to the various switch constructs outlined in Example 1, specifically switches 1.1-1.13, were transfected into mouse NIH3T3 cells (ATCC) or L57 cells (Dr. Peter Cherbas; Indiana University) as follows. Standard methods for culture and maintenance of the cells were followed. […] Superfect™ (Qiagen Inc.) was used for 3T3 cells and Lipofectamine™ (LifeTechnologies) was used for L57 cells as the transfection reagents. For 12-well plates, 4 μl of Superfect™ or Lipofectamine™ was mixed with 100 μl of growth medium. One μg of reporter construct and 0.25 μg of each receptor construct of the receptor pair to be analyzed were added to the transfection mix. […] The cells were harvested and reporter activity was assayed.
Cells were harvested 40 hours after adding ligands. […] Twenty μl of lysate were assayed.
Briefly, Applicants mutated amino acid residues predicted to be critical for ecdysteroid binding into alanine and created GAL4/mutantCfEcR-DEF cDNA gene expression cassettes as described in Example 1 above using the Quikchange PCR-mediated site-directed mutagenesis kit (Stratagene, La Jolla, Calif.). The mutated and the WT cDNAs were tested in GAL4-driven luciferase reporter assays.
DNAs corresponding to the various switch constructs outlined in Example 1, specifically switches 1.1-1.2, were transfected into mouse NIH3T3 cells (ATCC) as follows. […] Two μl of Superfect™ was mixed with 100 μl of growth medium and 50 ng of either GAL4/wild-type EcR or Gal4/mutant EcR cassette, 50 ng of VP16/LmUSP-EF and 200 ng of pFRLuc were added to the transfection mix. […] The cells were harvested and reporter activity was assayed as described above.

Molecule	Fold increase over WT, 2.5 μM GS™-E [fold]	Fold increase over WT, 2.5 μM PonA [fold]	Fold increase over WT, 10 nM GS™-E [fold]	Fold increase over WT, 10 nM PonA [fold]	further results
B1	0.8	0.008	–	–	non-steroid activity (summary of Table 10) (GS™-E, CfEcR-DEF point mutants): not significantly affected; steroid binding activity (summary of Table 10) (PonA, CfEcR-DEF point mutants): essentially eliminated
B2	–	–	124.3	122.3	–
B3	8	8	–	–	–
B4	–	–	2.3	20.3	–
B5	–	–	12.4	26.6	–
B6	0.9	0.35	–	–	–
B7	–	–	21.1	1005.1	–
B8	–	–	386.4	1194.4	–
B9	0.47	0.002	–	–	–
B10	–	–	22.0	11.3	–
B11	1.7	0.13	–	–	–
B12	–	–	62.8	136.6	–
B13	1.5	0.5	–	–	–
B14	0.018	45	–	–	–
B15	0.35	408	–	–	–
B16	0.46	0.07	–	–	–
B17	0.12	0.004	–	–	–
B18	–	–	0.4	485.7	–
B19	0.26	3.4	–	–	–
B20	0.7	0.39	–	–	–
B21	–	–	314.6	35.8	–
B22	–	–	622.8	42.2	–
B23	17.3	35.7	–	–	–
B24	3.07	3.1	–	–	–
B25	122	3.37	–	–	–
